Assay [1] concerns the target T1, SARS-CoV-2 spike receptor-binding domain (RBD), amino acids 333 to 529, bacteria-expressed and refolded (SARS-CoV-2, UniProt P0DTC2 333-529). The experiment in a line: SPR.
In assay [2] the target is T1, SARS-CoV-2 spike receptor-binding …. The experiment in a line: SPR. This is another data set of the same source. (In general: Surface plasmon resonance follows binding to a sensor surface in real time, without labels.)

As a reminder, the koff is the first-order rate constant of dissociation. A higher koff goes with a short-lived complex. As usually defined, the Kd is the concentration at which binding is half-saturated. High values mean lower affinity, low ones higher affinity.

B1: Sybody Sb68 (VHH)
VHH: QVQLVESGGGSVQAGGSLRLSCAASGSISSITYLGWFRQAPGKEREGVAALITVNGHTYYADSVKGRFTVSLDNAKNTVYLQMNSLKPEDTALYYCAAAAWGYAWPLHQDDYWYWGQGTQVTVSA
In assay [1], B1 came in with a koff of 0.023 s⁻¹.

B2: Sybody Sb14 (VHH)
VHH: QVQLVESGGGLVQAGGSLRLSCAASGFPVQAREMEWYRQAPGKEREWVAAIKSTGTYTAYAYSVKGRFTISRDNAKNTVYLQMNSLKPEDTAVYYCYVYVGSSYIGQGTQVTVSA
B2 came in with a koff in assay [1] of 0.007 s⁻¹. For the same molecule, in assay [2], binding was characterised by a dissociation constant (Kd) of 13.8 nM.

B3: Sybody Sb15 (VHH)
VHH: QVQLVESGGGLVQAGGSLRLSCAASGFPVKNFEMEWYRKAPGKEREWVAAIQSGGVETYYADSVKGRFTISRDNAKNTVYLQMNSLKPEDTAVYYCFVYVGRSYIGQGTQVTVS
Turning to B3, the koff in assay [1] turned out to be 0.011 s⁻¹.

B4: Sybody Sb16 (VHH)
VHH: QVQLVESGGGLVQAGGSLRLSCAASGFPVAYKTMWWYRQAPGKEREWVAAIESYGIKWTRYADSVKGRFTISRDNAKNTVYLQMNSLKPEDTAVYYCIVWVGAQYHGQGTQVTVSA
B4 displayed a koff in assay [1] of 0.02 s⁻¹. The molecule further registered a Kd in assay [2] of 40.6 nM.
